Experimental data published in article PMC9341007 (Structure (London, England : 1993), 2022).

Molecular target: equine ACE2 peptidase domain (horse (Equus caballus), UniProt A0A9L0TPT7 19-615)
Experiment: SPR

B1: hCoV-NL63 spike receptor-binding domain (domain or fragment)
chain: QHTDINFTATASFGGSCYVCKPHQVNISLNGNTSVCVRTSHFSIRYIYNRVKSGSPGDSSWHIYLKSGTCPFSFSKLNNFQKFKTICFSTVEVPGSCNFPLEATWHYTSYTIVGALYVTWSEGNSITGVPYPVSGI
  Kd: 106 nM
